Results taken from patent US20130005944A1 (ANCHOR THERAPEUTICS, published 2013).
Where no end group is shown, it is not given here. [ ]: non-standard residue; d: D form. The star is where a group is joined. Ala(3-Me-diazirin-3-yl) = CC1(C[C@H](N)C(=O)O)N=N1; Hexadecanesulfonyl = CCCCCCCCCCCCCCCCS(=O)(=O)*; 2Nal = N[C@@H](Cc1ccc2ccccc2c1)C(=O)O; Palmitoyl = CCCCCCCCCCCCCCCC(=O)*; Hyp = O=C(O)[C@@H]1C[C@@H](O)CN1; Cit = NC(=O)NCCC[C@H](N)C(=O)O; code z = not defined here; hSer = N[C@@H](CCO)C(=O)O; Nle = CCCC[C@H](N)C(=O)O; Pra = C#CC[C@H](N)C(=O)O; Dap = NC[C@H](N)C(=O)O

Each binder was assayed against CXCR4 receptor (human, UniProt P61073 1-352) (assay: cell-based or functional assay).
CXCR4 receptor, sequence (P61073 whole entry): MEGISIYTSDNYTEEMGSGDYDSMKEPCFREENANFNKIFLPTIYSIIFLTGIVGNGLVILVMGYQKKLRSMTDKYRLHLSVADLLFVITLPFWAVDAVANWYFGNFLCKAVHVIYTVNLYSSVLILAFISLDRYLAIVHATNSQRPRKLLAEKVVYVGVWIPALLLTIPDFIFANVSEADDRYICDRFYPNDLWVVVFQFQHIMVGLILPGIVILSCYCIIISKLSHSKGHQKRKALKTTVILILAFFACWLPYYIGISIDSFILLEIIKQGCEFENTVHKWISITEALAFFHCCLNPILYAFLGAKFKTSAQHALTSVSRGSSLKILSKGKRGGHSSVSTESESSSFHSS
With Palmitoyl-GGYQKKLRSATDKYRL (not fully specified (C-terminus)) [Compound No. 25 (Pal-GGYQKKLRSATDKYRL)] the “% Intrinsic Activity, calcium flux, CEM cells (Flexstation)” value (from here on “% Intrinsic Activity, calcium flux”) was 89.4% and the “EC50 (nM), calcium flux, CEM cells, agonist mode (Flexstation)” value (“EC50 (nM), calcium flux … (Flexstation)” for short) was 36.8 nM. With Pal-MGYQKKLRS[Nle]TDKYRL [Compound No. 17 (Pal-MGYQKKLRS(Nle)TDKYRL)] the “% Intrinsic Activity, calcium flux” value was 62.7% and the “EC50 (nM), calcium flux … (Flexstation)” value was 208 nM. Palmitoyl-MGYQKKLRSHTDKYRL (not fully specified) [Compound No. 18 (Pal-MGYQKKLRSHTDKYRL)] was tested, and the “% Intrinsic Activity, calcium flux” value was 93.4% and the “EC50 (nM), calcium flux … (Flexstation)” value was 110 nM. For Palmitoyl-CGYQKKLRSATDKYRL (not fully specified) [Compound No. 30 (Pal-CGYQKKLRSATDKYRL)], the “% Intrinsic Activity, calcium flux” value was 95.3% and the “EC50 (nM), calcium flux … (Flexstation)” value was 144 nM. With Palmitoyl-MGYQKPLRSMTDKYRL [Compound No. 6 (Pal-MGYQKPLRSMTDKYRL)] the “% Intrinsic Activity, calcium flux” value was 90.2% and the “EC50 (nM), calcium flux … (Flexstation)” value was 161 nM. For Palmitoyl-MGYQKKLRSMTDKYKL (not fully specified) [Compound No. 13 (Pal-MGYQKKLRSMTDKYKL)], the “% Intrinsic Activity, calcium flux” value was 61.4% and the “EC50 (nM), calcium flux … (Flexstation)” value was 194 nM. In the case of Pal-[Pra]GYQKKLRSMTDKYRL [Compound No. 24 (Pal-(Pra)GYQKKLRSMTDKYRL)], the “% Intrinsic Activity, calcium flux” value is reported as 76.6% and the “EC50 (nM), calcium flux … (Flexstation)” value is reported as 267 nM. For Palmitoyl-MGYQKKLRSGTDKYRL (not fully specified) [Compound No. 19 (Pal-MGYQKKLRSGTDKYRL)], the “% Intrinsic Activity, calcium flux” value was 101% and the “EC50 (nM), calcium flux … (Flexstation)” value was 370 nM. For Pal-GYQKKLRS[Nle]TDKYRI [Compound No. 20 (Pal-GYQKKLRS(Nle)TDKYRI)], the “% Intrinsic Activity, calcium flux” value was 62.5% and the “EC50 (nM), calcium flux … (Flexstation)” value was 232 nM. Pal-[hSer]GYQKKLRS[hSer]TDKYRL [Compound No. 22 (Pal-xGYQKKLRSxTDKYRL)] was tested, and the “% Intrinsic Activity, calcium flux” value was 77.7% and the “EC50 (nM), calcium flux … (Flexstation)” value was 125 nM. In the case of {3‑(dodecyloxy)propanoate}-GGYQKKLRSATDKYRL (not fully specified (C-terminus)) [Compound No. 31 (3-(dodecyloxy)propanoate-GGYQKKLRSATDKYRL)], the “% Intrinsic Activity, calcium flux” value is reported as 84.2% and the “EC50 (nM), calcium flux … (Flexstation)” value is reported as 154 nM. With Pal-GGYQKK[dP]R[dP]ATDKYRL [Compound No. 28 (Pal-GGYQKKpRpATDKYRL)] the “% Intrinsic Activity, calcium flux” value was 107% and the “EC50 (nM), calcium flux … (Flexstation)” value was 25 nM. In the case of Palmitoyl-MGYQKKLRSMTDKYRV (not fully specified) [Compound No. 11 (Pal-MGYQKKLRSMTDKYRV)], the “% Intrinsic Activity, calcium flux” value is reported as 61.7% and the “EC50 (nM), calcium flux … (Flexstation)” value is reported as 1320 nM. With Pal-[code z]GYQKKLRS[code z]TDKYRL (not fully specified; printed as Pal-zGYQKKLRSzTDKYRL; reading uncertain) [Compound No. 23 (Pal-zGYQKKLRSzTDKYRL)] the “% Intrinsic Activity, calcium flux” value was 87.2% and the “EC50 (nM), calcium flux … (Flexstation)” value was 83 nM. For Palmitoyl-MGYQKKLRSMTDKFRL (not fully specified) [Compound No. 15 (Pal-MGYQKKLRSMTDKFRL)], the “% Intrinsic Activity, calcium flux” value was 81.5% and the “EC50 (nM), calcium flux … (Flexstation)” value was 135 nM. Pal-GGYQKKLR[dP][Dap]TDKYRL [Compound No. 34 (Pal-GGYQKKLRp(Dpr)TDKYRL)] was tested, and the “% Intrinsic Activity, calcium flux” value was 103% and the “EC50 (nM), calcium flux … (Flexstation)” value was 89 nM. Palmitoyl-GGYQKKLRTATDKYRL (not fully specified) [Compound No. 41 (Pal-GGYQKKLRTATDKYRL)] was tested, and the “% Intrinsic Activity, calcium flux” value was 149% and the “EC50 (nM), calcium flux … (Flexstation)” value was 106 nM. In the case of Pal-GGYQKK[Ala(3-Me-diazirin-3-yl)]RSATDKYRL [Compound No. 37 (Pal-GGYQKK(photoLeu)RSATDKYRL)], the “% Intrinsic Activity, calcium flux” value is reported as 85.7% and the “EC50 (nM), calcium flux … (Flexstation)” value is reported as 71.2 nM. Pal-GGYQKKLR[dP][Hyp]TDKYRL [Compound No. 36 (Pal-GGYQKKLRp(Hyp)TDKYRL)] was tested, and the “% Intrinsic Activity, calcium flux” value was 55.2% and the “EC50 (nM), calcium flux … (Flexstation)” value was 603 nM. In the case of Pal-GGYQKKLR[dP][dP]HTDKYRL [Compound No. 32 (Pal-GGYQKKLRppHTDKYRL)], the “% Intrinsic Activity, calcium flux” value is reported as 91.1% and the “EC50 (nM), calcium flux … (Flexstation)” value is reported as 73.2 nM. In the case of Palmitoyl-GGYQKKHRSATDKYRL (not fully specified) [Compound No. 38 (Pal-GGYQKKHRSATDKYRL)], the “% Intrinsic Activity, calcium flux” value is reported as 86.8% and the “EC50 (nM), calcium flux … (Flexstation)” value is reported as 27 nM. With Pal-GGYQKKLR[dP]ATDKYRL [Compound No. 27 (Pal-GGYQKKLRpATDKYRL)] the “% Intrinsic Activity, calcium flux” value was 111% and the “EC50 (nM), calcium flux … (Flexstation)” value was 85.9 nM. In the case of Pal-GGYQKKLR[Hyp]HTDKYRL [Compound No. 35 (Pal-GGYQKKLR(Hyp)HTDKYRL)], the “% Intrinsic Activity, calcium flux” value is reported as 89.4% and the “EC50 (nM), calcium flux … (Flexstation)” value is reported as 45 nM. For Pal-MGYQKKLRSMTDK[2Nal]RL [Compound No. 16 (Pal-MGYQKKLRSMTDK(Nal)RL)], the “% Intrinsic Activity, calcium flux” value was 34.4% and the “EC50 (nM), calcium flux … (Flexstation)” value was 3020 nM. For Hexadecanesulfonyl-GGYQKKLR[dP]HTDKYRL-NH2 (also: table lists the lipid as 'Pal') [Compound No. 46 (CH3(CH2)15SO2-GGYQKKLRpHTDKYRL-amide)], the “EC50 (nM), calcium flux, CEM cells, agonist mode (FLIPR)” value was 12.5 nM. In the case of Pal-GGYQKKLR[dP]ATDKFRL [Compound No. 29 (Pal-GGYQKKLRpATDKFRL)], the “% Intrinsic Activity, calcium flux” value is reported as 88.9% and the “EC50 (nM), calcium flux … (Flexstation)” value is reported as 26.3 nM. For Pal-GGYQKKLR[dP]WTDKYRL [Compound No. 33 (Pal-GGYQKKLRpWTDKYRL)], the “% Intrinsic Activity, calcium flux” value was 93% and the “EC50 (nM), calcium flux … (Flexstation)” value was 109 nM. For Palmitoyl-GGYQKKLRSATDKYRLH (not fully specified) [Compound No. 40 (Pal-GGYQKKLRSATDKYRLH)], the “% Intrinsic Activity, calcium flux” value was 78.7% and the “EC50 (nM), calcium flux … (Flexstation)” value was 297 nM. For Pal-MGYQKKLRSMTDKY[Cit]L [Compound No. 14 (Pal-MGYQKKLRSMTDKY(Cit)L)], the “% Intrinsic Activity, calcium flux” value was 3.61% and the “EC50 (nM), calcium flux … (Flexstation)” value was 10000 nM. With Palmitoyl-MGYQKKLRPSMTDKYRL (not fully specified) [Compound No. 8 (Pal-MGYQKKLRPSMTDKYRL)] the “% Intrinsic Activity, calcium flux” value was 88% and the “EC50 (nM), calcium flux … (Flexstation)” value was 169 nM. With Palmitoyl-MGYQKKLPRSMTDKYRL (not fully specified) [Compound No. 7 (Pal-MGYQKKLPRSMTDKYRL)] the “% Intrinsic Activity, calcium flux” value was 100% and the “EC50 (nM), calcium flux … (Flexstation)” value was 153 nM. In the case of Pal-MGYQKKLRSMTDKYR[Nle] [Compound No. 12 (Pal-MGYQKKLRSMTDKYR(Nle))], the “% Intrinsic Activity, calcium flux” value is reported as 73.2% and the “EC50 (nM), calcium flux … (Flexstation)” value is reported as 249 nM. In the case of Pal-MGYQKKLRS[dP]MTDKYRL [Compound No. 9 (Pal-MGYQKKLRSpMTDKYRL)], the “% Intrinsic Activity, calcium flux” value is reported as 77.9% and the “EC50 (nM), calcium flux … (Flexstation)” value is reported as 123 nM. For Pal-GGYQKKLR[dP]HTDKYRL [Compound No. 26 (Pal-GGYQKKLRpHTDKYRL)], the “% Intrinsic Activity, calcium flux” value was 91.2% and the “EC50 (nM), calcium flux … (Flexstation)” value was 55.2 nM.
